Data as given in patent US20260209334A1 (MAX PLANCK GESELLSCHAFT ZUR F RDERUNG DER WISSENSCHAFTEN E V, published 2026).
Numbering of substitutions follows the chain as printed.

T1: recombinant human IL-17F (produced in HEK cells, Proteintech HZ-1116) (human, UniProt Q96PD4 31-163)
T1 sequence (looked up): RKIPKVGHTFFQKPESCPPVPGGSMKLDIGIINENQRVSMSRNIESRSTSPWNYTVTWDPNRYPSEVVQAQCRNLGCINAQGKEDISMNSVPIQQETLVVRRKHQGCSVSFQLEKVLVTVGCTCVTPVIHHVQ

T2: human IL-17F with C-terminal Avi-tag, biotinylated, immobilized on BLI sensors (human, UniProt Q96PD4 31-163, biotin on the C-terminal Avi-tag (BirA))
T2 construct: also called biotinylated IL-17F; not shown: C-terminal Avi-tag
T2 sequence: T1 sequence (looked up)

T3: human IL-17A homodimer, bacterially expressed construct (residues 40-155 with GSEDS spacer) (human, UniProt Q16552 40-155)
T3 chain: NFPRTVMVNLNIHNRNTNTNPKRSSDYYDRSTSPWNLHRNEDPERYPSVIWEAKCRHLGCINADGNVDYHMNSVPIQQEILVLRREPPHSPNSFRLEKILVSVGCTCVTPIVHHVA

T4: human IL-17F homodimer, bacterially expressed construct (residues 39-163 with GSEGE linker) (human, UniProt Q96PD4 39-163)
T4 construct: also called IL-17F dimer
T4 chain: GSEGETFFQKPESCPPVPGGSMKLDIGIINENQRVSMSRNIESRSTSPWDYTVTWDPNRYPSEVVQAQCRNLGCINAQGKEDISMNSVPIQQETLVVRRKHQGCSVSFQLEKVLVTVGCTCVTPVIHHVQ

B1: Bm42A03 (VHH)
VHH: QVQLVESGGGLVQPGGSLRLSCVASGFTFSSFAMSWYRQDPGKERKLVAAITNDGGTTFYSDLVKGRFTISRDNTKNTVYLQMNNVKPDDAAVYYCMAVRGLYGSNWYDYPFELWGQGTQVTVSS
notes: Class C, second generation
B2: Bm44G10 (VHH)
VHH: B1 VHH with K43R
notes: Class C, second generation
B3: Bm45G07 (VHH)
VHH: QVQLVESGGGFVQAGGSLKLSCSVSGNTFITNHMGWFRQPPGKGREFVAGIRWSDGSTFYGDSVRGRFTISGDNAKHTLYLQMNSLKPDDTAVYYCYIDSGSDRYYGQGTLVTVSS
notes: Class D, second generation
B4: Bm42B11 (VHH)
VHH: QVQLVESGGDLVQAGGSLRLSCSVSGLRVSSYAMGWFRQAPGKEREFVAAISWVGGDTRYADSVKGRFTMSRDNAKKQVYLEMNSLKPEDTAVYYCNDMPYGMETRMDDYASWGQGTQVTVSS
notes: Class A, second generation
B5: Bm42A09 (VHH)
VHH: QVQLVESGGGLVRTGGSLRLSCSVSGDISSQSAMGWYRQVPGRQRELVAMIHTTKGDTYYADSVKGRFTISRINANNTIYLQMNNLKPEDTAIYYCTHNEPGDLYMGQGTLVTVSS
notes: Class B, second generation
B6: Bm43B02 (VHH)
VHH: QVQLVESGGGLVQAGGSLNLSCVISRRTPSGYAMGWFRQASGKEREFVAAISWIGGGAVYADSVKGRFTMSRDNAKNTVYLQMNSLKPEDTAVYYCNDMPYGLDTTMDDYDYWGQGTLVTVSS
notes: Class A, second generation
B7: Bm44B11 (VHH)
VHH: B6 VHH with L118Q
notes: Class A, second generation
B8: Re42B04a (VHH)
VHH: QVQLVESGGGLVQVGGSLRLSCEVSGLPVSSYAMGWFRQAPEKEREFVAAISWIGGDSRYAHFVKGRFTISRDNAKNTVHLQMDSLKPEDTAVYYCNDMPYGLDTRMDEYEYWGQGTQVTVSS
notes: Class A; Monovalent VHH
B9: VHH662 (VHH)
VHH: EVQLVESGGGSVQAGDSLRLSCAASGRANSINWFGWFRQTPGKEREFVAGIRWSDAYTEYANSVKGRFTISRDNAKNTVDLQMDSLKPEDTAVYYCVLDLSTVRYWGQGTQVTVSS
notes: Control VHH of Ablynx, disclosed in WO2012156219
B10: Re42B04 with C-terminal Avi-Biotin-tag, biotinylated (VHH)
VHH: B8 VHH with Q115L
modifications: biotin on the C-terminal Avi-tag (BirA)
notes: not shown: C-terminal Avi-Biotin-tag
B11: Re42H11 (VHH)
VHH: QVQLVESGGGLVQAGGSLRLSCAASGLTASSYAMGWFRQAPGKEREFVAAISWISGGTKYADSVKGRFTMSRDNAKKQVYLEMNSLKPEDTAVYYCNDMPYGLDTRMDEYAYWGQGTQVTVSS
notes: Class A, first generation; For the crystal it was made with a His14-ScSUMO tag that was cleaved off
B12: Re42B03 (VHH)
VHH: B11 VHH with A29G, A61T, G66D, N74Y, A111V
notes: Class A, first generation
B13: Bm18B05 (VHH)
VHH: QVQLVESGGGLVQPGGSLRLSCAVSGRTFSSYAMGWFRRPPGKEREFVAAISWSGGDTKYADFVTDRFTISRDDAKSTVYLQMNSLKPEDTAVYYCNDMPYGLDTRMDEYEYWGQGTQVTVSS
notes: Class A, first generation
B14: Re42B03 with C-terminal Avi-Biotin-tag, biotinylated (VHH)
VHH: B11 VHH with A29G, A61T, G66D, N74Y, A111V
modifications: biotin on the C-terminal Avi-tag (BirA)
notes: as for B10
B15: Re42H11 with C-terminal Avi-Biotin-tag, biotinylated (VHH)
VHH: B11 VHH
modifications: biotin on the C-terminal Avi-tag (BirA)
notes: as for B10

What follows are binders tested against recombinant human IL-17A (produced in HEK cells, Proteintech HZ-1113) (human, UniProt Q16552 24-155) (assay: cell-based or functional assay).
recombinant human IL-17A (produced in HEK cells, Proteintech HZ-1113), sequence (Q16552 24-155 limits assumed): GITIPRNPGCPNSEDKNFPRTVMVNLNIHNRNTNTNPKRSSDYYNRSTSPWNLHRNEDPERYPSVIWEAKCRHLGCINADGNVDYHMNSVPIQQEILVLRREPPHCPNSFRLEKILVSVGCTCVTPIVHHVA

| Neutralization potency, ranking from 1 = the best to 4 (HEK-Blue IL-17 reporter cells) | Binder |
| --- | --- |
| 1 rank | B1 |
| 1 rank | B2 |
| 1 rank | B3 |
| 1 rank | B4 |
| 2 rank | B5 |
| 2 rank | B6 |
| 3 rank | B7 |
| 1 rank | B8 |
| 2 rank | B9 |

These binders were tested against T1, recombinant human IL-17F (produced in …) (assay: cell-based or functional assay).

| Neutralization potency, ranking from 1 = the best to 4 (HEK-Blue IL-17 reporter cells) | Binder |
| --- | --- |
| 1 rank | B1 |
| 3 rank | B2 |
| 2 rank | B3 |
| 2 rank | B4 |
| 1 rank | B5 |
| 2 rank | B6 |
| 1 rank | B7 |
| 2 rank | B8 |
| 4 rank | B9 |

What follows are binders tested against recombinant human IL-17A/F (produced in CHO cells, R&D Systems 5837-IL) (human, UniProt Q16552 24-155; Q96PD4 31-163, limits assumed) (assay: cell-based or functional assay).
recombinant human IL-17A/F (produced in CHO cells, R&D Systems 5837-IL), sequence (Q16552 24-155 limits assumed, chain 1 of 2, one chain of several): as the sequence (Q16552 24-155 limits assumed) above

| Neutralization potency, ranking from 1 = the best to 4 (HEK-Blue IL-17 reporter cells) | Binder |
| --- | --- |
| 1 rank | B1 |
| 1 rank | B2 |
| 1 rank | B3 |
| 1 rank | B4 |
| 1 rank | B5 |
| 2 rank | B6 |
| 1 rank | B7 |
| 1 rank | B8 |
| 1 rank | B9 |

Each binder was assayed against T5, human IL-17A with C-terminal Avi-tag, biotinylated, immobilized on BLI sensors (human, UniProt Q16552 24-155, biotin on the C-terminal Avi-tag (BirA)) (assay: BLI, biotinylated IL-17A immobilized, monovalent VHH as analyte).
T5 construct: also called biotinylated IL-17A; not shown: C-terminal Avi-tag

| Kd | Binder |
| --- | --- |
| 0.06 nM | B3 |
| ≤ 0.01 nM | B4 |
| 0.13 nM | B6 |
| 0.15 nM | B7 |
| 0.05 nM | B8 |
| 0.115 nM | B9 |

What follows are binders tested against T2, human IL-17F with C-terminal Avi-tag, … (assay: BLI, biotinylated IL-17F immobilized, monovalent VHH as analyte).

| Kd | Binder |
| --- | --- |
| 4 nM | B3 |
| 2 nM | B4 |
| 0.075 nM | B6 |
| 0.09 nM | B7 |
| 0.5 nM | B8 |
| 16 nM | B9 |

The binders below were run against T6, human IL-17A/F heterodimer, bacterially expressed construct (human, UniProt Q16552 40-155; Q96PD4 39-163, limits assumed) (assay: BLI, VHH immobilized, IL-17 as analyte; apparent KD with avidity; µM as printed (Table 3 uses pM)).
T6 construct: IL-17A unit with N68D, IL-17F unit with N83D and C137S, both with GSEDS spacer; already in the entries

| Kd | Binder |
| --- | --- |
| ≤ 20000 nM | B10 |

The binders below were run against T5, human IL-17A with C-terminal Avi-tag, … (assay: BLI, biotinylated IL-17A immobilized, monovalent VHH as analyte; 2:1 heterogenous model, high affinity component).

| Kd | Binder |
| --- | --- |
| 0.15 nM | B1 |
| 0.2 nM | B2 |
| 0.8 nM | B5 |

What follows are binders tested against T2, human IL-17F with C-terminal Avi-tag, … (assay: BLI, biotinylated IL-17F immobilized, monovalent VHH as analyte; 2:1 heterogenous model, high affinity component).

| Kd | Binder |
| --- | --- |
| 0.35 nM | B1 |
| 0.35 nM | B2 |
| ≤ 0.01 nM | B5 |

What follows are binders tested against T5, human IL-17A with C-terminal Avi-tag, … (assay: BLI, biotinylated IL-17A immobilized on streptavidin sensors, monovalent VHH as analyte (25, 50, 100 nM), mass transport fit).

| Kd | Binder |
| --- | --- |
| 1 nM | B11 |
| 0.7 nM | B12 |
| ≤ 0.01 nM | B8 |
| 2 nM | B13 |

Target: T3, human IL-17A homodimer, bacterially …
Test: BLI, biotinylated VHH immobilized on streptavidin sensors, IL-17 as analyte (10, 20, 40 nM), mass transport fit; apparent value, avidity possible;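 further: wavelength shift (nm) signal, 800 s association then 800 s dissociation, reference from parallel sensors without VHH, avidity from immobilized VHH may lower apparent off-rates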

| Kd | koff | kon | Binder |
| --- | --- | --- | --- |
| ≤ 0.01 nM | ≤ 1e-07 s⁻¹ | 120000 M⁻¹ s⁻¹ | B14 |
| ≤ 0.01 nM | ≤ 1e-07 s⁻¹ | 120000 M⁻¹ s⁻¹ | B15 |
| ≤ 0.01 nM | ≤ 1e-07 s⁻¹ | 110000 M⁻¹ s⁻¹ | B10 |

Target: T4, human IL-17F homodimer, bacterially …
Test: as above

| Kd | koff | kon | Binder |
| --- | --- | --- | --- |
| ≤ 0.01 nM | ≤ 1e-07 s⁻¹ | 260000 M⁻¹ s⁻¹ | B14 |
| ≤ 0.01 nM | ≤ 1e-07 s⁻¹ | 270000 M⁻¹ s⁻¹ | B15 |
| ≤ 0.01 nM | ≤ 1e-07 s⁻¹ | 140000 M⁻¹ s⁻¹ | B10 |

These binders were tested against T6, human IL-17A/F heterodimer, bacterially … in the same assay as above.

| Kd | koff | kon | Binder |
| --- | --- | --- | --- |
| ≤ 0.01 nM | ≤ 1e-07 s⁻¹ | 340000 M⁻¹ s⁻¹ | B14 |
| ≤ 0.01 nM | ≤ 1e-07 s⁻¹ | 360000 M⁻¹ s⁻¹ | B15 |
| ≤ 0.01 nM | ≤ 1e-07 s⁻¹ | 240000 M⁻¹ s⁻¹ | B10 |

What follows are binders tested against T5, human IL-17A with C-terminal Avi-tag, … (assay: BLI, biotinylated IL-17A immobilized on streptavidin sensors, monovalent VHH as analyte (20, 100 nM), 2:1 heterogenous fit, low affinity component).

| KD2 | Binder |
| --- | --- |
| 300 nM | B5 |
